For orientation: EC50 (read off the curve) means the concentration needed to bring the measured effect to its halfway point. High values mean weaker potency, low ones greater potency.

The target in assay [1] is HCV E1E2 glycoproteins, genotype 1b (Con1) (Hepatitis C virus genotype 1b (Con1)) (UniProt Q9WMX2). Description: cell-based or functional assay.
The target of assay [2] is HCV E1E2 glycoproteins, genotype 2a (J6) (Hepatitis C virus genotype 2a (J6)). Put plainly: cell-based or functional assay.
For another assay, the target named is Peptide D3. To be noted: remark: other sources report otherwise.

HCV E1E2 glycoproteins, genotype 1b (Con1) (Hepatitis C virus genotype 1b (Con1)), sequence (Q9WMX2 192-383 limits assumed, chain 1 of 2): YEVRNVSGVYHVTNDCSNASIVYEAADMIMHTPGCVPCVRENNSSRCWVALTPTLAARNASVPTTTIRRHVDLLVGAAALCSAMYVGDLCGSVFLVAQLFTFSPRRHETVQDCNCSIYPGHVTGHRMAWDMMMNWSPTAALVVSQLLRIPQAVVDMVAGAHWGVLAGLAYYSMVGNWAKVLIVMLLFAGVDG
HCV E1E2 glycoproteins, genotype 1b (Con1) (Hepatitis C virus genotype 1b (Con1)), sequence (Q9WMX2 384-746 limits assumed, chain 2 of 2): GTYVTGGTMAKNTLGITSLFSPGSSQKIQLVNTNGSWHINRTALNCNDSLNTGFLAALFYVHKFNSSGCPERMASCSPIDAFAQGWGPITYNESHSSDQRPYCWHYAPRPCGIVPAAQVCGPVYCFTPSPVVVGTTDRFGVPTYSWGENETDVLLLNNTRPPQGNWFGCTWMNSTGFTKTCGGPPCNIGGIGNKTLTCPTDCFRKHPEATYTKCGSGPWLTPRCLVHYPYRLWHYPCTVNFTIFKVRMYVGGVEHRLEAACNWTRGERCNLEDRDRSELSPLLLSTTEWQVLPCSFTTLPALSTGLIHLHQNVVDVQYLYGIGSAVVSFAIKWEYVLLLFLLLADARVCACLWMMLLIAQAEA

B1: AP33 antibody (as used in Example 2) (antibody, V domains shown)
VH: EVQLQESGPSLVKPSQTLSLTCSVTGDSITSGYWNWIRKFPGNKLEYMGYISYSGSTYYNLSLRSRISITRDTSKNQYYLQLNSVTTEDTATYYCALITTTTYAMDYWGQGTSVTVS
VL: NIVLTQSPVSLAVSLGQRATISCRASESVDGYGNSFLHWFQQKPGQPPKLLIYLASNLNSGVPARFSGSGSRTDFTLTIDPVEADDAATYYCQQNNVDPWTFGGGTKLEIK
Turning to B1, the EC50, neutralization of Con1 HCVpp entry (Huh-7.5, luciferase) in assay [1] worked out at 1.42 µg/mL. In assay [2], this molecule returned an EC50, neutralization of J6 HCVpp entry (Huh-7.5, luciferase) of 2.07 µg/mL.

B2: chimeric AP33 antibody (Vh/Vl) (antibody, V domains shown)
VH: B1 VH
VL: B1 VL
The molecule B2 gave an EC50 (read off the curve) with Peptide D3 of 0.02 µg/mL.

The record behind these values is US20120027722A1.
